# Measured values: patent US5763590A (Vertex Pharmaceuticals, Inc., priority 1994, dated 1998)
# Read-outs that look alike come from different tables or passages of the source.
# T1: hFKBP52 (Homo sapiens, UniProt Q02790)
# T1 construct: The hFKBP52 open reading frame (ORF) was expressed in E. coli with a vector (pQE8, Qiagen Inc.); histidine tag (pQE8) (N, cleaved yes); Factor Xa cleavage site (Ile-Glu-Gly-Arg) (N, cleaved yes); made in house; host or cells: E. coli XA90
# T1 sequence (Q02790 1-459): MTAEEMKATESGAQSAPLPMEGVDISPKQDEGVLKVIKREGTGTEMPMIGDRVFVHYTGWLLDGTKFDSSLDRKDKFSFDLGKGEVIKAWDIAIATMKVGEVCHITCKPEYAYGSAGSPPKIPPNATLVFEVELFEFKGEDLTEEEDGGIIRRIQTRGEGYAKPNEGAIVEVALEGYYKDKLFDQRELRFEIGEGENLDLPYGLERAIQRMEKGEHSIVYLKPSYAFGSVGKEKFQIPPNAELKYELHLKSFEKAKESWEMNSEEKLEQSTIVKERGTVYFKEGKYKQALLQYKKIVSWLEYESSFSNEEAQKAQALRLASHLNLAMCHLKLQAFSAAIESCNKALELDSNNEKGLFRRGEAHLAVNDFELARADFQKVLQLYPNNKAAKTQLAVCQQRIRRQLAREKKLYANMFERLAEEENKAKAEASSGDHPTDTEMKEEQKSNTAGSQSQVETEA
# B1: hFKBP52: Mr 52,000 FK506 binding protein; recombinant human form expressed in E. coli, 459 residues (SEQ ID NO: 26) (protein)
# chain: T1 sequence (Q02790 1-459)
# Key:
# hFKBP52 = biological target: T1, hFKBP52; test: Inhibition of peptidyl-prolyl cis-trans isomerase (PPIase) activity of hFKBP52; type: biochemical
# Method: The peptidyl-prolyl isomerization rate was determined by coupling isomerization of a prolyl-containing peptide to trans substrate hydrolysis by chymotrypsin (Fisher, G., et al., Nature 337:476-478 (1989)). The assay was performed according to Harrison and Stein (Biochem., 29:3813-3816 (1980) with modifications described by Park S. T., et al., J. Biol. Chem. 267:3316-3324 (1992). The tetrapeptide substrate succinyl-Ala-P1-Pro-Phe-p-nitroanilide, where P1=Leu, was used to determine specific activity and inhibition constants, and a series of peptide substrates with related structures (P1=Phe, Val, Ala, Gly, Glu or Lys) was used to determine substrate specificity. Protein concentrations of rhFKBP52 stock solutions were determined by a Coomassie Blue binding assay (Bradford, M., Anal. Biochem., 72:248-254 (1976)). FKBP52 (60 nM final) was added to a reaction mixture containing substrate (27 μM final) in 0.1M Tris-HCl, pH 7.8 at 15° C., and the solution was incubated in a 2 ml cuvette for 5 min at 15° C. […] For measurement of substrate specificity, the final FKBP52 concentration was adjusted so the Kobs was at least four-fold higher than knon-enz. Inhibition data were fit to an equation for tight-binding competitive inhibitors using KineTic™ software (BioKin, Ltd.) running on a Macintosh IIcx computer.
# [1] = cited from earlier work
# [2] = PPIase catalysis of the isomerization of tetrapeptide substrates (chymotrypsin-coupled assay); type: biochemical
# Method: As described in detail in Example 2, the assay of Harrison and Stein (Harrison, R. K. and R. L. Stein, Biochemistry 29:3813-3816 (1990)) can be used to measure peptidyl prolyl cis-trans isomerization (PPIase) activity of FKBP52.
# The peptidyl-prolyl isomerization rate was determined by coupling isomerization of a prolyl-containing peptide to trans substrate hydrolysis by chymotrypsin (Fisher, G., et al., Nature 337:476-478 (1989)). The assay was performed according to Harrison and Stein (Biochem., 29:3813-3816 ([…]) with modifications described by Park S. T., et al., J. Biol. Chem. 267:3316-3324 (1992). The tetrapeptide substrate succinyl-Ala-P1-Pro-Phe-p-nitroanilide, where P1=Leu, was used to determine specific activity and inhibition constants, and a series of peptide substrates with related structures (P1=Phe, Val, Ala, Gly, Glu or Lys) was used to determine substrate specificity. Protein concentrations of rhFKBP52 stock solutions were determined by a Coomassie Blue binding assay (Bradford, M., Anal. Biochem., 72:248-254 (1976)). FKBP52 (60 nM final) was added to a reaction mixture containing substrate (27 μM final) in 0.1M Tris-HCl, pH 7.8 at 15° C., and the solution was incubated in a 2 ml cuvette for 5 min at 15° C. (950 μl final) before adding chymotrypsin (100 μg ml^-1 final) to start reaction. For measurement of substrate specificity, the final FKBP52 concentration was adjusted so the Kobs was at least four-fold higher than knon-enz. Inhibition data were fit to an equation for tight-binding competitive inhibitors using KineTic™ software (BioKin, Ltd.) running on a Macintosh IIcx computer.
molecule,measurement,setting,value
CO[C@H]1C[C@@H]2CC[C@@H](C)[C@@](O)(O2)C(=O)C(=O)N2CCCC[C@H]2C(=O)O[C@H]([C@H](C)C[C@@H]2CC[C@@H](O)[C@H](OC)C2)CC(=O)[C@H](C)/C=C(\C)[C@@H](O)[C@@H](OC)C(=O)[C@H](C)C[C@H](C)/C=C/C=C/C=C/1C [rapamycin],Ki,hFKBP52,8 nM
"hFKBP12: recombinant human FK506 binding protein of Mr about 11,800, used as comparator PPIase",Specific activity at 15° C.,"[1]; Substrate P1 = Ala, data from Park et al. 1992",310000 M⁻¹ s⁻¹
same,Specific activity at 15° C.,"[1]; Substrate P1 = Leu (Suc-Ala-Leu-Pro-Phe-pNA), data from Park et al. 1992, listed as FKBP12",4.3e+06 M⁻¹ s⁻¹
same,Specific activity at 15° C.,"[1]; Substrate P1 = Leu (Suc-Ala-Leu-Pro-Phe-pNA), data from Park et al. 1992",4.3e+06 M⁻¹ s⁻¹
same,Specific activity at 15° C.,"[1]; Substrate P1 = Phe, data from Park et al. 1992",2e+06 M⁻¹ s⁻¹
same,Specific activity at 15° C.,"[1]; Substrate P1 = Val, data from Park et al. 1992",900000 M⁻¹ s⁻¹
"recombinant human FKBP52 (Mr 52,000 FK506 binding protein) (enzyme)","Specific activity at 15° C. (PPIase, chymotrypsin-coupled assay)",Suc-Ala-Ala-Pro-Phe-pNA,26000 M⁻¹ s⁻¹
same,"Specific activity at 15° C. (PPIase, chymotrypsin-coupled assay)",Suc-Ala-Leu-Pro-Phe-pNA,390000 M⁻¹ s⁻¹
same,"Specific activity at 15° C. (PPIase, chymotrypsin-coupled assay)",Suc-Ala-Phe-Pro-Phe-pNA,73000 M⁻¹ s⁻¹
same,"Specific activity at 15° C. (PPIase, chymotrypsin-coupled assay)",Suc-Ala-Val-Pro-Phe-pNA,39000 M⁻¹ s⁻¹
B1,Specific activity at 15° C.,[2]; Substrate P1 = Ala,26000 M⁻¹ s⁻¹
same,Specific activity at 15° C.,[2]; Substrate P1 = Leu (Suc-Ala-Leu-Pro-Phe-pNA),390000 M⁻¹ s⁻¹
same,Specific activity at 15° C.,"[2]; Substrate P1 = Leu (Suc-Ala-Leu-Pro-Phe-pNA), listed as FKBP52",390000 M⁻¹ s⁻¹
same,Specific activity at 15° C.,[2]; Substrate P1 = Phe,73000 M⁻¹ s⁻¹
same,Specific activity at 15° C.,[2]; Substrate P1 = Val,39000 M⁻¹ s⁻¹
same,Specific activity relative to recombinant human FKBP12 (rhFKBP12),"[2]; substrate Suc-Ala-Leu-Pro-Phe-pNA, 15° C.",approximately 10%
